The values that follow come from PMC4502523.

Series [1] relates to CSc1ccc(CC(C)N)cc1. Kind of series: cells, lysate or membranes.
The subject of series [2] is CC(N)Cc1ccc(Cl)cc1. Nature of the series: cells, lysate or membranes.

Regarding human SERT (hSERT) (Homo sapiens), the Km in series [1] is 6.1 ± 2.3 µM; in series [2], 3.3 ± 0.9 µM.
